Results from the Human Domainome abundance scans (Beltran et al. 2025).
± gives the uncertainty stated by the source.

B1: V(D)J recombination-activating protein 2, residues 415 to 491; numbered along this chain, P55895 (parent)
chain: YWITCCPTCDVDINTWVPFYSTELNKPAMIYCSHGDGHWVHAQCMDLAERTLIHLSAGSNKYYCNEHVEIARALHTP

Variants of: B1
Assay: abundance fitness (aPCA) (normalised: wild type 0, dead -1); higher = more abundant; growth selection in yeast, the domain comes from the species named
Settings: Homo sapiens

Variant	abundance fitness
D12E	0.083 ± 0.42
D12V	-0.304 ± 0.3
H41R	-0.755 ± 0.25
V11A	-0.741 ± 0.35
S33W	-0.072 ± 0.052
S33D	0.035 ± 0.078
C5G	-0.392 ± 0.2
Y63W	0.115 ± 0.12
V17M	-0.105 ± 0.25
V40D	-0.555 ± 0.43
T15H	0.03 ± 0.29
E66M	0.048 ± 0.11
E66I	-0.17 ± 0.11
E66N	-0.381 ± 0.21
I30K	0.147 ± 0.23
T51A	-0.025 ± 0.045
T51E	-0.016 ± 0.093
F19M	-0.029 ± 0.16
F19P	-0.509 ± 0.15
E49N	-0.183 ± 0.14
E49V	-0.264 ± 0.049
E49Y	-0.127 ± 0.053
E49K	-0.279 ± 0.1
A42M	-0.313 ± 0.14

Variant	abundance fitness
A42L	-0.684 ± 0.087
A42W	-0.643 ± 0.067
A73L	0.053 ± 0.084
A73G	0.096 ± 0.071
L47T	-0.101 ± 0.056
L47V	0.034 ± 0.039
D10A	0.065 ± 0.14
D10K	-0.089 ± 0.18
S21M	-0.321 ± 0.44
I70L	0.03 ± 0.073
I70S	-0.145 ± 0.14
A57N	0.057 ± 0.11
A57D	0.04 ± 0.18
S56C	-0.099 ± 0.11
S56L	-0.046 ± 0.064
S56T	0.004 ± 0.099
Y62L	-0.304 ± 0.072
Y62D	-0.558 ± 0.11
Y62R	-0.561 ± 0.083
Y62A	-0.328 ± 0.08
T22H	0.216 ± 0.46
H75E	0.029 ± 0.12
H75S	-0.042 ± 0.081
H75Y	-0.179 ± 0.1

Variant	abundance fitness
H75K	-0.003 ± 0.1
H75D	0.094 ± 0.12
H75R	-0.001 ± 0.058
H75W	-0.069 ± 0.064
L24S	-0.153 ± 0.099
C9F	-0.637 ± 0.26
C9T	-0.809 ± 0.38
C9R	-0.668 ± 0.18
I53V	-0.048 ± 0.096
I53M	0.041 ± 0.1
I53G	0.007 ± 0.064
I53R	-0.011 ± 0.071
T8Y	-0.541 ± 0.45
T8V	-0.196 ± 0.23
T8A	-0.437 ± 0.17
G58P	-0.013 ± 0.11
G58C	-0.061 ± 0.13
G58I	-0.003 ± 0.39
N25R	-0.052 ± 0.14
N25M	-0.254 ± 0.24
N65M	-0.12 ± 0.085
N65Y	-0.318 ± 0.36
N65K	-0.047 ± 0.081
N65A	0.001 ± 0.063

Variant	abundance fitness
M29L	0.072 ± 0.19
H67D	-0.424 ± 0.1
H67R	-0.253 ± 0.034
H54Y	-0.183 ± 0.24
H54R	-0.056 ± 0.074
D46T	0.088 ± 0.061
D46H	-0.071 ± 0.11
K26A	-0.275 ± 0.3
K26R	-0.006 ± 0.12
K26T	-0.074 ± 0.38
Y1V	-0.008 ± 0.08
Y1D	-0.108 ± 0.21
Y1K	-0.365 ± 0.17
Y1N	-0.252 ± 0.17
A71T	0.09 ± 0.1
A71C	-0.033 ± 0.061
A71H	-0.179 ± 0.12
A71E	0.085 ± 0.072
A71V	-0.003 ± 0.051
A71W	-0.207 ± 0.18
A71R	0.026 ± 0.052
T76M	-0.034 ± 0.089
T76H	-0.149 ± 0.2
T76Q	-0.009 ± 0.097

Variant	abundance fitness
T76R	-0.091 ± 0.073
C32P	-0.887 ± 0.16
C32K	-1.09 ± 0.46
C32G	-1.17 ± 0.17
E69R	0.035 ± 0.087
E69D	0.052 ± 0.16
A28N	0.078 ± 0.33
A28Y	0.009 ± 0.32
A28F	-0.183 ± 0.2
A28R	-0.214 ± 0.16
I3S	-0.118 ± 0.044
N60W	-0.207 ± 0.096
Y31K	0.041 ± 0.065
Y31I	-0.649 ± 0.26
Y31R	-0.04 ± 0.065
L52H	-0.597 ± 0.42
M45P	-1.26 ± 0.38
M45D	-0.193 ± 0.21
K61T	-0.045 ± 0.3
K61V	0.069 ± 0.19
K61S	-0.116 ± 0.13
K61R	-0.287 ± 0.2
C44N	-0.732 ± 0.32
C44S	-0.998 ± 0.12

Variant	abundance fitness
C44T	-0.556 ± 0.091
W16F	-0.725 ± 0.42
W16E	-0.894 ± 0.36
D36T	-0.62 ± 0.45
D36K	-0.441 ± 0.29
R72C	-0.143 ± 0.16
R72G	0.022 ± 0.11
W39M	-0.072 ± 0.036
P18N	-0.453 ± 0.27
P18E	-0.28 ± 0.34
S59V	-0.068 ± 0.068
S59N	-0.25 ± 0.21
S59E	0.002 ± 0.12
S59A	0.078 ± 0.073
H34N	-0.089 ± 0.11
H34A	-0.035 ± 0.069
H34C	-0.309 ± 0.19
H34R	-0.119 ± 0.074
H34Q	0.051 ± 0.085
Y20E	-0.576 ± 0.3
I13M	-0.284 ± 0.34
I13R	0.114 ± 0.14
G35V	-0.175 ± 0.36
G35L	-0.042 ± 0.15

Variant	abundance fitness
G35R	-0.374 ± 0.25
P77S	-0.354 ± 0.29
G37K	-0.785 ± 0.37
R50T	0.049 ± 0.06
R50Y	-0.122 ± 0.099
R50E	0.039 ± 0.076
R50F	-0.04 ± 0.081
R50C	0.106 ± 0.11
R50M	0.015 ± 0.089
T4S	-0.037 ± 0.054
T4P	-0.234 ± 0.068
P7V	-0.006 ± 0.34
P7R	-0.635 ± 0.31
P7W	-0.242 ± 0.23
A48E	0.013 ± 0.066
A48V	-0.009 ± 0.054
A48I	0.041 ± 0.11
A48H	-0.226 ± 0.16
Q43P	-0.771 ± 0.48
L55R	-0.111 ± 0.036
L55F	-0.06 ± 0.12
L55C	0.04 ± 0.099
L55W	-0.086 ± 0.053
